Results published in article PMC7588459 (Scientific Reports, 2020).
Changes are numbered by the printed parent chain. In names and notes the source's numbering stands.

B1: m102.4 VH K31A (antibody, V domains shown)
VH: EVQVIQSGADVKKPGSSVKVSCKSSGGTFSAYAINWVRQAPGQGLEWMGGIIPILGIANYAQKFQGRVTITTDESTSTAYMELSSLRSEDTAVYYCARGWGREQLAPHPSQYYYYYYGMDVWGQGTTVTVSS
VL: EIVMTQSPGTLSLAPGERATLSCWASQSVRNNYLAWYQQKPGQAPRLVIYNGSTRATGIPDRFSGSGSGTDFTLTISRLDPEDFAVYYCQQYGNSRRVTFGGGTKVEIK
B2: m102.4 VH L105A (antibody, V domains shown)
VH: B1 VH with A31K, L105A
VL: B1 VL
B3: m102.4 VH P109A (antibody, V domains shown)
VH: B1 VH with A31K, P109A
VL: B1 VL
B4: m102.4 VH G56A (antibody, V domains shown)
VH: B1 VH with A31K, G56A
VL: B1 VL
B5: m102.4 VH I54A (antibody, V domains shown)
VH: B1 VH with A31K, I54A
VL: B1 VL
B6: m102.4 VH R102A (antibody, V domains shown)
VH: B1 VH with A31K, R102A
VL: B1 VL
B7: m102.4 VL R30A (antibody, V domains shown)
VH: B1 VH with A31K
VL: B1 VL with R30A
notes: also called LC:R30 to alanine
B8: m102.4 VH Q111A (antibody, V domains shown)
VH: B1 VH with A31K, Q111A
VL: B1 VL
B9: m102.4 VH Y114A (antibody, V domains shown)
VH: B1 VH with A31K, Y114A
VL: B1 VL
B10: m102.4 VH L55A (antibody, V domains shown)
VH: B1 VH with A31K, L55A
VL: B1 VL
B11: m102.4 VH Y113A (antibody, V domains shown)
VH: B1 VH with A31K, Y113A
VL: B1 VL
B12: m102.4 VH Y112A (antibody, V domains shown)
VH: B1 VH with A31K, Y112A
VL: B1 VL
B13: m102.4 VH P107A (antibody, V domains shown)
VH: B1 VH with A31K, P107A
VL: B1 VL
B14: m102.4 VH S110A (antibody, V domains shown)
VH: B1 VH with A31K, S110A
VL: B1 VL
B15: m102.4 VH Q104A (antibody, V domains shown)
VH: B1 VH with A31K, Q104A
VL: B1 VL
B16: m102.4 VH I57A (antibody, V domains shown)
VH: B1 VH with A31K, I57A
VL: B1 VL
B17: m102.4 VH H108A (antibody, V domains shown)
VH: B1 VH with A31K, H108A
VL: B1 VL
B18: m102.4 VH E103A (antibody, V domains shown)
VH: B1 VH with A31K, E103A
VL: B1 VL
B19: m102.4 VH A106W (antibody, V domains shown)
VH: B1 VH with A31K, A106W
VL: B1 VL

molecular target: T1, Nipah virus attachment (receptor-binding) glycoprotein (GP), wild type (Nipah virus; strain of the assayed …, UniProt Q9IH62); assay: ELISA; conditions: both partners purified
T1 construct: source: HEK 293-F FreeStyle, transiently transfected, purified from supernatant (Ni-NTA)

Binder | Kd
B1 | 0.08 nM
B2 | 0.1 nM
B3 | 0.1 nM
B4 | 0.09 nM
B5 | 0.13 nM
B6 | 0.09 nM
B7 | 0.13 nM
B8 | 0.08 nM
B9 | 0.07 nM
B10 | 0.1 nM
B11 | 0.12 nM
B12 | 0.11 nM
B13 | 0.09 nM
B14 | 0.13 nM
B15 | 0.1 nM
B16 | 0.1 nM
B17 | 0.09 nM
B18 | 1.83 nM
B19 | 4.95 nM
